{"source": "patent US20100311184A1", "about": "“AZO HETEROCYCLIC DYES AND THEIR BIOLOGICAL CONJUGATES” (AAT BIOQUEST, INC., priority 2009, published 2010)", "biological_target": "HIV-1 protease (Human immunodeficiency virus type 1 group M subtype B, UniProt P04585)", "assay": "Fluorogenic HIV protease assay with FRET peptides (FIG. 3)", "assay_type": "biochemical", "conditions": "FRET peptide substrate, purified enzyme", "text": "Inhibition of HIV-1 protease represents an important avenue for AIDS therapy. Currently combination chemotherapy of reverse transcriptase inhibitors and protease inhibitors have shown to suppress the replication of HIV-1 and extend the life expectancy of HIV-1-infected individuals. The following FRET peptides of the instant disclosure are screened for developing a fluorogenic HIV protease assay. The enzyme assays are done with purified enzymes. Absorption spectra were taken with Hitachi U-3010. Endpoint fluorescence assays are run on either BMG NovoStar or Gemini SpectraMax (Molecular Devices). Enzyme kinetic assays are run on FlexStation (Molecular Devices). […] FRET Peptides #6 and #7 might be used for monitoring HIV protease activity in combination with a flow cytometer.\nAll the above FRET peptides are synthesized using the standard FMOC chemistry. Some of the TQ peptides were prepared using FMOC-Lys (Compound 12)-OH. For the post-labeling of the premade peptides, Dye NHS esters were used for labeling N-terminal amino or ε-amino group of lysine residue. Dye maleimides were used for labeling the SH group of cysteine residues.", "note": "Where no end group is shown, it is not given here. Compound 12 = dye made from 2-amino-6-nitrobenzothiazole and 3-(1'-oxo-3'-carboxypropylamino)-N,N-dimethylaniline", "data": [{"substance": "Arg-Glu(5-TAMRA)-Val-Ser-Phe-Asn-Phe-Pro-Gln-Ile-Thr-Lys(Compound 12)-Arg ({Arg-Glu(5-TAMRA)}-VSFNFPQITK(Compound 12)R) [FRET peptide #2]", "values": [{"measurement": "response to HIV-1 protease", "value": "excellent response"}]}]}
